Measured values: the supplement of paper PMC9732359
± gives the uncertainty stated by the source.

Test: protein stability index of a GFP-peptide fusion (yeast GPS) (PSI 1-4); higher = more stable; sorted into four equal gates, so the index is relative within each strain
Method in brief: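 The protein stability index of a peptide was calculated by multiplying its read frequency in each gate by that gate's number and adding the products. The peptides were tiled 17-residue stretches of yeast proteins, fused downstream of GFP on a Cherry-expressing plasmid and carried in yeast as a pooled library. Mid-log cultures in leucine-free medium were sorted into four equal gates by GFP/Cherry ratio, and each gate's plasmids were PCR-amplified and Illumina-sequenced.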

Sequence | protein stability index (doa10∆) | protein stability index (pdr5∆) | protein stability index (san1∆) | protein stability index (ubr1∆)
NPRKRAIPNSIIKRSNG [YMR153W/NUP53] | 2.19 ± 0.091 | 2.7 ± 0.1 | 2.67 ± 0.1 | 2.92 ± 0.12
ITVHAPLLPIVEELMKK [SNU114] | 2.38 ± 0.068 | 2.55 ± 0.054 | 2.52 ± 0.074 | 2.7 ± 0.055
GTSVYLVDKRIDMLPML [DIS3] | 1.89 ± 0.18 |  |  | 2.12 ± 0.25
FITRLAQGLLHLGKGTM [RPN1] | 2.9 ± 0.086 | 2.99 ± 0.091 | 2.3 ± 0.14 | 2.23 ± 0.074
IQNQSPQFNSPYDSNNS [SWI1] | 2.97 ± 0.057 | 3 ± 0.053 | 2.74 ± 0.052 | 2.82 ± 0.046
FKLVSTPSSNSNSSELE [MED1] | 1.85 ± 0.058 | 2.29 ± 0.062 | 2.35 ± 0.057 | 2.84 ± 0.046
PDNSIFGDTKSESKQLG [SWI3] | 3.54 ± 0.14 | 3.23 ± 0.091 | 3.21 ± 0.076 | 3.37 ± 0.052
IFSFHQDSIFQRIIADL [SRB8] | 2.49 ± 0.062 | 2.06 ± 0.072 | 2.24 ± 0.081 | 2.41 ± 0.035
YRVTLESILQMNQGEGE [RPC34] | 2.94 ± 0.19 | 3.16 ± 0.092 | 3.46 ± 0.26 | 2.97 ± 0.12
ITASTLLYADSLTAEAM [CYT1] | 2.1 ± 0.064 | 2.31 ± 0.059 | 2.51 ± 0.095 | 2.18 ± 0.039
SPAVKKLLQLAGVEDVY [RPS2] | 1.58 ± 0.062 | 1.76 ± 0.14 |  | 2.05 ± 0.2
STLMPGGVDVGPSVESY [SNF5] | 1.63 ± 0.083 | 1.87 ± 0.083 | 2 ± 0.16 | 2.68 ± 0.087
TLTASPDGTLIASAGKD [ASC1] | 2.86 ± 0.093 | 3.19 ± 0.1 | 3.12 ± 0.065 | 3.14 ± 0.063
GNSERPSAVAGFINQKN [YIL149C/MLP2] | 3.31 ± 0.1 | 3.29 ± 0.12 | 2.93 ± 0.097 | 3.03 ± 0.051
YGPPGTGKTLLARACAA [RPT5] | 2.5 ± 0.13 | 2.53 ± 0.081 | 2.29 ± 0.18 | 
QFASPVRWIETQDVFLK [FAS2] | 2.3 ± 0.026 | 2.06 ± 0.022 | 2.25 ± 0.027 | 2.195 ± 0.018
GPSATDPETTATQKESL [RGR1] | 2.43 ± 0.062 | 2.87 ± 0.071 | 1.66 ± 0.11 | 2.21 ± 0.048
VEIAYHKCDELITLFNK [RPO31] | 3.16 ± 0.19 | 3.01 ± 0.087 | 2.99 ± 0.078 | 2.96 ± 0.1
IHIQSKENYPWELYTDF [POP3] | 2.99 ± 0.095 | 3.16 ± 0.12 | 2.69 ± 0.12 | 3.12 ± 0.075
ENEVSDIDVTIVSKEYE [ESC2] | 3.08 ± 0.13 | 2.19 ± 0.098 | 3.09 ± 0.081 | 1.96 ± 0.066
PVNSADGKEDVEKGTPL [SME1] | 3.45 ± 0.12 | 3.25 ± 0.21 | 3.52 ± 0.058 | 
AIIYQRGKDGKLHVAAK [YGL100W/SEH1] | 3.25 ± 0.12 | 3.31 ± 0.1 | 2.9 ± 0.13 | 3.02 ± 0.18
PVQIVKRITQITIEPGV [RPS20] | 1.74 ± 0.15 | 1.79 ± 0.25 | 1.35 ± 0.21 | 1.65 ± 0.12
AKNFSAQKRVVSYMMPS [SRB8] | 2.02 ± 0.17 |  | 2.28 ± 0.15 | 1.96 ± 0.13
IIKQTVHPIPDVAFADG [YMR129W/POM152] | 2.8 ± 0.053 | 2.89 ± 0.062 | 2.77 ± 0.046 | 2.82 ± 0.043
EDEDDGESEKSSDVDMD [RPC53] | 3.28 ± 0.11 | 3.66 ± 0.14 | 3.29 ± 0.19 | 3.32 ± 0.094
HPIRLYTRYLDRIYMLF [PRP8] | 2.63 ± 0.067 | 1.76 ± 0.063 | 2.29 ± 0.1 | 2.4 ± 0.042

Sequence | protein stability index (doa10∆) | protein stability index (pdr5∆) | protein stability index (san1∆) | protein stability index (ubr1∆)
AHLWQKIHESIVFDICQ [PRP8] | 2.56 ± 0.09 | 2.69 ± 0.11 | 2.27 ± 0.13 | 2.39 ± 0.098
QNFAEFMTKLLEVANDL [IRR1] | 2.06 ± 0.11 | 2.29 ± 0.097 | 3.13 ± 0.085 | 2.65 ± 0.14
TSASNTSMNGVHNTVAA [SNF5] | 2.66 ± 0.042 | 2.86 ± 0.04 | 2.9 ± 0.051 | 2.9 ± 0.047
VAIAETDSWESFFVSVR [FAS1] |  | 3.05 ± 0.3 |  | 
EGWFYKRAASVARHIYM [RPS19A] | 1.97 ± 0.16 | 2.51 ± 0.22 | 1.99 ± 0.14 | 2.33 ± 0.17
SSLIKAGLDKGISINNM [RPO31] | 2.65 ± 0.064 | 2.7 ± 0.079 | 2.76 ± 0.066 | 2.95 ± 0.058
RLYVKGKHLSYQRSKRV [RPL33A] | 2.1 ± 0.063 | 1.75 ± 0.046 | 1.67 ± 0.094 | 2.46 ± 0.065
NFLQESYEVEHVIQIPL [TAF14] | 2.49 ± 0.094 | 2.94 ± 0.092 | 2.55 ± 0.067 | 2.81 ± 0.082
TEDVRLAPELNQAIWKR [RPL31B] | 2.67 ± 0.069 | 2.99 ± 0.083 | 3.03 ± 0.062 | 3.08 ± 0.05
HVLKTVDYGGAEWSLVR [SNU114] | 3.09 ± 0.19 | 3.42 ± 0.21 | 3.11 ± 0.18 | 1.31 ± 0.29
APPQRPRFNRENKVSPA [RPS26A] | 3.38 ± 0.15 | 2.83 ± 0.17 | 3 ± 0.072 | 2.95 ± 0.12
NVDYYNVAHRIKEDIKK [SNF2] | 3.32 ± 0.065 | 3.17 ± 0.066 | 3.11 ± 0.04 | 3.02 ± 0.046
AQSVGCRVDFKNPHDII [RPL12A] | 2.15 ± 0.061 | 2.4 ± 0.078 | 2.23 ± 0.12 | 2.32 ± 0.1
ENHNKGKLWKDVKARIA [QCR9] | 2.77 ± 0.14 | 3.07 ± 0.19 | 3 ± 0.13 | 2.83 ± 0.12
EESIRESLQKRELLKSQ [SIR3] | 3.13 ± 0.063 | 3.32 ± 0.068 | 3 ± 0.056 | 3.12 ± 0.059
EKNGGLGWDLDAIIPFA [FAS2] | 3.14 ± 0.098 | 3.22 ± 0.13 | 3.28 ± 0.066 | 3.08 ± 0.068
ARTIKATLPYIKQDIPI [RPB2] | 2.73 ± 0.1 | 2.3 ± 0.061 | 2.26 ± 0.075 | 2.74 ± 0.072
AFLSFLAYRNYWTQYLG [YJL039C/NUP192] | 1.33 ± 0.057 | 1.26 ± 0.04 | 1.26 ± 0.11 | 1.26 ± 0.068
SGYVRSRGESDDSLNRL [RPS21A] | 2.94 ± 0.14 | 1.85 ± 0.074 | 2.17 ± 0.084 | 2.88 ± 0.059
ITIFSPEGRLYQVEYAF [SCL1] | 2.58 ± 0.15 | 2.6 ± 0.11 | 2.1 ± 0.092 | 2.37 ± 0.068
SHKTTKEDTVSWFKQKY [RPL11A] | 1.8 ± 0.064 | 1.56 ± 0.054 | 1.36 ± 0.12 | 1.53 ± 0.064
TRFEVELEFIQSLANIQ [SOH1] | 2.15 ± 0.082 | 2.29 ± 0.061 | 2.14 ± 0.1 | 2.5 ± 0.058
KLIEKKSAYANTEKDYK [SMC2] | 2.71 ± 0.057 | 2.59 ± 0.059 | 2.83 ± 0.053 | 2.88 ± 0.045
LREFRITHNTNITDNLF [GRR1] | 1.32 ± 0.15 | 1.28 ± 0.15 |  | 2.07 ± 0.11
ATKDNELNVKHVKQCQE [SMC2] | 2.96 ± 0.1 | 3.35 ± 0.2 | 2.97 ± 0.066 | 3.32 ± 0.05
VIFNDNVTETYSVYLIH [SIR3] | 2.35 ± 0.12 | 2.42 ± 0.09 | 2.72 ± 0.072 | 2.28 ± 0.12
